These results are taken from article PMC5683647, “Comparison of histone-like HU protein DNA-binding properties and HU/IHF protein sequence alignment”.

For data set [1], the system named is HU (Mycoplasma gallisepticum). Nature of the data set: EMSA. The settings on record: 20 mM Tris-HCl pH 8.0, 7% glycerol, 40 mM NaCl (dsDNA length series, 200 nM DNA, gel 50 mM Tris-borate) or 150 mM NaCl (distorted structures, 10.5 nM DNA, gel …).
Data set [2] addresses T1, HU (Neisseria gonorrhoeae, UniProt Q5F8J6 1-89).
T1 sequence: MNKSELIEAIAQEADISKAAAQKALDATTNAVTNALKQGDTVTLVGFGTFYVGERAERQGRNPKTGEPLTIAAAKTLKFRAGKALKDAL
Nature of the data set: EMSA. Conditions: 20 mM Tris-HCl pH 8.0, 7% glycerol, 40 mM NaCl (dsDNA length series, 200 nM DNA, gel 50 mM Tris-borate) or 150 mM NaCl (distorted structures, 10.5 nM DNA, gel …). On the technique in general: In EMSA bound probe runs differently from free probe, usually more slowly.

In data set [3] the target is T2, HU (Mycoplasma gallisepticum) (UniProt A0A0F6CKR5).
T2 sequence: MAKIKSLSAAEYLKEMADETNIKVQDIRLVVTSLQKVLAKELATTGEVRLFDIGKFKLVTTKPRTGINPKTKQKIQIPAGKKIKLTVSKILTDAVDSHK
Nature of the data set: EMSA. Conditions: 20 mM Tris-HCl pH 8.0, 150 mM NaCl, 7% glycerol; 15 min; labelled DNA 10.5 nM; gel in 100 mM Tris-borate; temperature not stated; low values mean tight binding.

For data set [4], the target named is T3, HU (Neisseria gonorrhoeae) (UniProt Q5F8J6).
T3 sequence: T1 sequence
Description: EMSA. The settings on record: 20 mM Tris-HCl pH 8.0, 150 mM NaCl, 7% glycerol; 15 min; labelled DNA 10.5 nM; gel in 100 mM Tris-borate; temperature not stated; low values mean tight binding.

In data set [5] the target is T4, HU (Spiroplasma melliferum) (UniProt A0ABX5UAT3).
T4 sequence: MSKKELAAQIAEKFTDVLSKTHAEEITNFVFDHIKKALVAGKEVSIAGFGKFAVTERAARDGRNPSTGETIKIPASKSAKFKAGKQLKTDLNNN
Nature of the data set: EMSA. Conditions: 20 mM Tris-HCl pH 8.0, 150 mM NaCl, 7% glycerol; 15 min; labelled DNA 10.5 nM; gel in 100 mM Tris-borate; temperature not stated; low values mean tight binding.

Data set [6] deals with T5, HU alpha (Escherichia coli) (UniProt P0ACF0).
T5 sequence: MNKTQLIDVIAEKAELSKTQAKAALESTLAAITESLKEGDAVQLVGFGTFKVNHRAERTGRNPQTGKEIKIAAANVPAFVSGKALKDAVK
Description: EMSA. The settings on record: 20 mM Tris-HCl pH 8.0, 150 mM NaCl, 7% glycerol; 15 min; labelled DNA 10.5 nM; gel in 100 mM Tris-borate; temperature not stated; low values mean tight binding.

Data set [7] concerns HU (Spiroplasma melliferum). Description: EMSA. The settings on record: 20 mM Tris-HCl pH 8.0, 7% glycerol, 40 mM NaCl (dsDNA length series, 200 nM DNA, gel 50 mM Tris-borate) or 150 mM NaCl (distorted structures, 10.5 nM DNA, gel …).
Data set [8] has as its target T6, HU alpha (Escherichia coli, UniProt P0ACF0 1-90). Nature of the data set: EMSA; 40 mM NaCl; 20 mM Tris-HCl pH 8.0, 7% glycerol, 40 mM NaCl (dsDNA length series, 200 nM DNA, gel 50 mM Tris-borate) or 150 mM NaCl (distorted structures, 10.5 nM DNA, gel 100 mM Tris-borate); 15 min, temperature not stated. Conditions: protein: recombinant; tags: N-terminal 6xHisTEV removed by TEV protease; chain copies: 2; label: 5'-HEX; blunt.

Data set [9] deals with T1, HU. Description: EMSA; 40 mM NaCl; 4 complexes; 20 mM Tris-HCl pH 8.0, 7% glycerol, 40 mM NaCl (dsDNA length series, 200 nM DNA, gel 50 mM Tris-borate) or 150 mM NaCl (distorted structures, 10.5 nM DNA, gel 100 mM Tris-borate); 15 min, temperature not stated. The settings on record: protein: recombinant; tags: N-terminal 6xHisTEV removed by TEV protease; chain copies: 2; label: 5'-HEX; blunt.

Data set [10] has as its target T1, HU. Nature of the data set: EMSA; 40 mM NaCl; 2 complexes; 20 mM Tris-HCl pH 8.0, 7% glycerol, 40 mM NaCl (dsDNA length series, 200 nM DNA, gel 50 mM Tris-borate) or 150 mM NaCl (distorted structures, 10.5 nM DNA, gel 100 mM Tris-borate); 15 min, temperature not stated. Conditions: protein: recombinant; tags: N-terminal 6xHisTEV removed by TEV protease; chain copies: 2; label: 5'-HEX; blunt.

For data set [11], the target named is T6, HU alpha. Nature of the data set: EMSA; 40 mM NaCl; 3 complexes; 20 mM Tris-HCl pH 8.0, 7% glycerol, 40 mM NaCl (dsDNA length series, 200 nM DNA, gel 50 mM Tris-borate) or 150 mM NaCl (distorted structures, 10.5 nM DNA, gel 100 mM Tris-borate); 15 min, temperature not stated. The settings on record: protein: recombinant; tags: N-terminal 6xHisTEV removed by TEV protease; chain copies: 2; label: 5'-HEX; blunt.

Data set [12] addresses T1, HU. The description is as above. Conditions: protein: recombinant; tags: N-terminal 6xHisTEV removed by TEV protease; chain copies: 2; label: 5'-HEX; blunt.
Data set [13] addresses T1, HU. Nature of the data set: EMSA; 20 mM Tris-HCl pH 8.0, 150 mM NaCl, 7% glycerol; 15 min; labelled DNA 10.5 nM; gel in 100 mM Tris-borate; temperature not stated. Conditions: protein: recombinant, tags: N-terminal 6xHisTEV removed by TEV protease, chain copies: 2, label: 5'-HEX on strand 1.
For data set [14], the target named is T6, HU alpha. The data set is described as above. The settings on record: protein: recombinant, tags: N-terminal 6xHisTEV removed by TEV protease, chain copies: 2, label: 5'-HEX on strand 1.
The target in data set [15] is HU (Mycoplasma gallisepticum, UniProt A0A0F6CKR5 1-99). The data set is described as above. Conditions: protein: recombinant, tags: N-terminal 6xHisTEV removed by TEV protease, chain copies: 2, label: 5'-HEX on strand 1.
For data set [16], the target named is T7, HU (Spiroplasma melliferum, UniProt A0ABX5UAT3 1-94).
T7 sequence: T4 sequence
The description is as above. The settings on record: protein: recombinant, tags: N-terminal 6xHisTEV removed by TEV protease, chain copies: 2, label: 5'-HEX on strand 1.

The target of data set [17] is T1, HU. Description: EMSA; 150 mM NaCl; 20 mM Tris-HCl pH 8.0, 7% glycerol, 40 mM NaCl (dsDNA length series, 200 nM DNA, gel 50 mM Tris-borate) or 150 mM NaCl (distorted structures, 10.5 nM DNA, gel 100 mM Tris-borate); 15 min, temperature not stated. The settings on record: protein: recombinant; tags: N-terminal 6xHisTEV removed by TEV protease; chain copies: 2; label: 5'-HEX on strand 1; four-way junction 1:2 2:3 3:4 4:1.

Where [18] appears, read: four-way junction 1:2 2:3 3:4 4:1.
Where [19] appears, read: duplex with 3 unpaired A in strand 2.
Setting [20] is: duplex with 7 unpaired A in strand 2.
Where [21] appears, read: duplex with 1 unpaired A in strand 2.

In the case of “AGTCTAGAGTGCAGTTGAGTCCTTGCTACGACGGATCCCTTAGGTCAG / CTGACCTAAGGGATCCGTCGTAGCAAGGGGCTGATACCGGAAGCTTCT / AGAAGCTTCCGGTATCAGCCTGAGCGGTGGTTGAATTCCT / AGGAATTCAACCACCGCTCAACTCAACTGCACTCTAGACT [four-way junction (J)]”, the binding signal (fold affinity vs nicked DNA) in [1] was 10.
Consider DNA invasion (inv), for which the figures for the binding signal (fold affinity vs nicked DNA) (in [1]; with HU [2]) were 20 and 5, respectively.
“AGTCTAGAGTGCAGTTGAGTCCTTGCTACGACGGATCCCTTAGGTCAG (double strand) [D48 dsDNA (ds)]”: the Kd (usually the free concentration of one partner at which half of the binding sites on the other are occupied at equilibrium, for simple one-to-one binding) in data set [3] was determined as 440 nM; in data set [4], 1100 nM; in [5], 117 nM; in [6] it was 293 nM.
As to “AGTCTAGAGTGCAGTTGAGTCCTTGCTACGACGGATCCCTTAGGTCAG / CTGACCTAAGGGATCCGTCGTAGCAAGAGACTCAACTGCACTCTAGACT [bulge A1]”, the Kd was 132 nM in data set [1] and 35 nM in [7].

B1: D36 dsDNA (dsDNA)
DNA 1: AGTCTAGAGTGCAGTTGAGTCCTTGCTACGACGGAT
DNA 2: ATCCGTCGTAGCAAGGACTCAACTGCACTCTAGACT
With B1, the binding result with HU alpha [8] and with HU [9] was “binds” in each case.

B2: D21 dsDNA (dsDNA)
DNA 1: AGTCTAGAGTGCAGTTGAGTC
DNA 2: GACTCAACTGCACTCTAGACT
For the molecule B2, the binding result with HU alpha [8] and with HU [10] was “binds” throughout.

B3: D29 dsDNA (dsDNA)
DNA 1: AGTCTAGAGTGCAGTTGAGTCCTTGCTAC
DNA 2: GTAGCAAGGACTCAACTGCACTCTAGACT
B3: the binding result with HU alpha [11] is reported as “binds”.

B4: D27 dsDNA (dsDNA)
DNA 1: AGTCTAGAGTGCAGTTGAGTCCTTGCT
DNA 2: AGCAAGGACTCAACTGCACTCTAGACT
Turning to B4, the binding result with HU [12] is “binds”.

B5: four-way junction (J) (structured_DNA)
DNA 1: AGTCTAGAGTGCAGTTGAGTCCTTGCTACGACGGATCCCTTAGGTCAG
DNA 2: CTGACCTAAGGGATCCGTCGTAGCAAGGGGCTGATACCGGAAGCTTCT
DNA 3: AGAAGCTTCCGGTATCAGCCTGAGCGGTGGTTGAATTCCT
DNA 4: AGGAATTCAACCACCGCTCAACTCAACTGCACTCTAGACT
Turning to B5, the dissociation constant Kd in the data set with HU [13] (setting [18]) stood at 110 ± 25 nM; with HU alpha [14] (setting [18]), 44 ± 10 nM; with HU [15] (setting [18]), 26 ± 6 nM; with HU [16] (setting [18]), 35 ± 8 nM. Besides, the binding signal with HU [17] was 4 fold affinity vs nicked DNA.

B6: bulge A3 (structured_DNA)
DNA 1: B5 DNA 1
DNA 2: CTGACCTAAGGGATCCGTCGTAGCAAGAAAGACTCAACTGCACTCTAGACT
On to B6, for which the Kd was determined as 440 ± 120 nM with HU [13] (setting [19]), 88 ± 20 nM with HU alpha [14] (setting [19]), 132 ± 30 nM with HU [15] (setting [19]) and 35 ± 8 nM with HU [16] (setting [19]).

B7: bulge A7 (structured_DNA)
DNA 1: B5 DNA 1
DNA 2: CTGACCTAAGGGATCCGTCGTAGCAAGAAAAAAAGACTCAACTGCACTCTAGACT
Take B7: the dissociation constant (Kd) stood at 220 ± 60 nM in the data set with HU [13] (setting [20]), 44 ± 10 nM with HU alpha [14] (setting [20]), 44 ± 12 nM with HU [15] (setting [20]) and 12 ± 4 nM with HU [16] (setting [20]).

B8: overhang (ov) (structured_DNA)
DNA 1: B5 DNA 1
DNA 2: ACTCAACTGCACTCTAGACT
For the molecule B8, the dissociation constant Kd was 120 ± 25 nM with HU [13] (3' overhang 28 nt), 50 ± 15 nM with HU alpha [14] (3' overhang 28 nt), 30 ± 8 nM in the data set with HU [15] (3' overhang 28 nt) and 45 ± 10 nM with HU [16] (3' overhang 28 nt).

B9: nicked DNA (n) (structured_DNA)
DNA 1: B5 DNA 1
DNA 2: CTGACCTAAGGGATCCGTCGTAGCAAGG
DNA 3: ACTCAACTGCACTCTAGACT
As to B9, the Kd with HU [13] (nick 1:2 1:3) worked out at 440 ± 100 nM; in the data set with HU alpha [14] (nick 1:2 1:3), 88 ± 20 nM; with HU [15] (nick 1:2 1:3), 264 ± 70 nM; in the data set with HU [16] (nick 1:2 1:3) it was 35 ± 8 nM.

B10: bulge A1 (structured_DNA)
DNA 1: B5 DNA 1
DNA 2: CTGACCTAAGGGATCCGTCGTAGCAAGAGACTCAACTGCACTCTAGACT
As for B10, the equilibrium dissociation constant (Kd) in the data set with HU [13] (setting [21]) came to 440 ± 120 nM; with HU alpha [14] (setting [21]), 88 ± 20 nM; with HU [15] (setting [21]), 132 ± 30 nM; with HU [16] (setting [21]), 35 ± 8 nM.
